Measurements from the supplement of paper PMC9170038.

Tested on: K4 kissing-loop RNA reporter
Assay: apparent KD of K4 kissing-loop reporter; higher = weaker reporter binding
Details: Eterna round: R107
Description: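 RNA-MaP round R107: designed RNA switches with theophylline, tryptophan, arginine or FMN aptamers are transcribed on-chip within common flanks. They are titrated with a labelled K4 kissing-loop RNA reporter in RNA-MaP buffer (100 mM Tris pH 7.5, 80 mM KCl, 4 mM MgCl2), without ligand or with the indicated ligand. Median apparent KD per design.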

[1] = input ligand: theophylline 20 uM
[2] = input ligand: tryptophan 2.4 mM
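Note: bound reporter read as fluorescence of individual clusters on recovered sequencing chips by microscopy, with normalized cluster intensities fitted with a binding model.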

| Sequence | apparent KD of K4 kissing-loop reporter (input ligand: FMN 200 uM) [nM] | apparent KD of K4 kissing-loop reporter (input ligand: arginine 13.2 mM) [nM] | apparent KD of K4 kissing-loop reporter (input ligand: none) [nM] | apparent KD of K4 kissing-loop reporter [1] [nM] | apparent KD of K4 kissing-loop reporter [2] [nM] |
| --- | --- | --- | --- | --- | --- |
| GGCAGUGAUGUUGCCAGUGGCAGAUGCGAAGGAGCGCAGUGAGAUGCAGGUAGGUCGCGCAUUGAAAUUGCUGUCACUAAAAUGC [#2] | 363 | 369 | 371 | 276 | 234 |
| GGCAGUGAUGUUGCCAGUGGCAGAUUAGAAGGAGCGUGGUGAGACACAGGUAGGUCGCUAAUUGAAAUUGCUGUCACUAAAAUGC [#6] | 292 | 282 | 300 | 368 | 212 |
| GGCAGUGAUGUUGCCAGUGGCAGAUUGGAAGGAGCGUGGUGAGACACAGGUAGGUCGCUAAUUGAAAUUGCUGUCACUAAAAUGC [whbob_Ex_Arginine_A_2t130] | 297 | 314 | 307 | 308 | 242 |
| GGCAUGGUGACGCGGCUGCCAUGCACUUGGGAGGAUAUGUUUCGUGACAGAAGGCCCAGUGAUGUUGGGUCUGUUCAAAAGGACU [Lerere] | 434 | 135 | 146 | 148 | 119 |
| GGCCCGGGCGCGGCCGCCACUCCCUCGUACCGAAAGGUAUGAUACCGAGUGAUGUUCGGUUGGAGGAGGACCGGGCGCCCGGGCC [#2 Exclusion - Tryptophan B Attempt #4 (HarryS)] | 140 | 129 | 105 | 80.7 | 152 |
| GGCGGCCGCGCGUAAGCGCGGCCGGCCGAUACCAGCGCGACGGCGCGCCCUUGGCAGCGGCGCCGAGUGAUGUUCGGCCUGCCGG [#2 Same State - Theophylline A Attempt #17 (HarryS)] | 376 | 381 | 441 | 465 | 596 |
| GGGAAGAAGGCGGCCGCCACUGCAGAAGAGACAGAGAGAGAAGAAGAGGAGUGAUGUUCCAAGAACAGGACCGGGCCAAGAAGGG [whbob_SS_Tryp_B_t28] | 167 | 84.2 | 102 | 146 | 129 |
| GGGACGCUAGCUCGAAUGUAGUGAUUUGAUACCAGCCUGUCACUUGGCCCUUGGCAGCAAAGCAGAGUGAUGUUCUGACCAACCU [theeternabot_sameState_KL_Theo_A_47] | 189 | 298 | 235 | 346 | 144 |
| GGGAGGAACUGAGGAUAUUCGAAGAAAUAUAGUGAUGUUAUGUAAGGAGGAGGAGGGAGGGAGGAAGGAGAAGGCAGAAGAGGAG [ExFMNB.A] | 428 | 415 | 500 | 294 | 433 |
| GGGAGUAGUGCGGCCGCCACUGAGAAAGAAGAAGAAUAUAGUGAUGUUAUAUAGGAAAGGAAGAACAGGACCGGGCAUUAGAUUU [SSTRyptB.F] | 232 | 220 | 251 | 232 | 180 |
| GGGAGUAGUGCGGCCGCCACUGAGAAAGAAGAAGAUUGUAGUGAUGUUAUGGAGGAAAGGAAGAACAGGACCGGGCAUUAGAUUU [SSTRyptB.I] | 1080 | 735 | 231 | 651 | 684 |
| GGGAGUGAUGUUCCCACGUUGUCGGUCCUUCGAGGACCGGUACGGCCGCCACUCGCGACCCAGUGAUGUUGGGAUUCACCGUACC [Exclusion Tryptophan A Gf 13] | 431 | 421 | 471 | 506 | 409 |
| GGGCCUAUUGAUGCUGGAGUAAUUCUGGAAGGAGCGCUCAAAGGAGCAGGUAGGUCGCCAGUAUACAAGGGCAGUGAUGUUGCCC [Entimalati] | 143 | 162 | 161 | 146 | 142 |
| GGGCGGCAGACGGCCGCCACUCAUAGCAGCCAGUGAGUGAUGUUCGUGGCGGAGUGAUGUUCCUAGAGGACCGGGUUUGUUGUUC [Same State Tryptophan B GF 19] | 551 | 354 | 464 | 471 | 596 |
| GGGUGGCAGGCGGCCGCCACUCUGAGCACCCACUGAGUGAUGUUCGUGGCGUAAGCCUGUUCGUAGAGGACCGGGUUUGUUGUUC [Exclusion Tryptophan B GF 15] | 413 | 162 | 300 | 281 | 230 |
| GGGUGGGUGCGAGGAUAUGGAGUGAUGUUCCAAAAGAAAAGAAGAGAAGAGAAAGAGAGAAAGAAACCAGAAGGCGCGUCCGUCC | 115 | 123 | 193 | 238 | 141 |
| GGUAGCAUGGCGGCCGCCACUCAUCGCCUCCCAUCGUCGGGAAGAAUAAGUGUAGUGAUGUUACAGAGGACCGGGCCAUGCUACC | 472 | 386 | 898 | 494 | 268 |
| GGUAGCAUGGCGGCCGCCACUGAGCAAGUGAUGUUUGCCUCCCUACCCUAGUGUCGAGAGUAUAUCAGGACCGGGCCAUGCUACC | 188 | 132 | 149 | 164 | 136 |
| GGUAGCAUGGCGGCCGCCACUUACUUCAAUAGGAGUGAUGUUCCUAUUACUAGUAGUGAAAUAAUAAGGACCGGGCCAUGCUACC | 103 | 87.9 | 95.2 | 82.8 | 96.8 |
| GGUAGCGCUAGAGAUACCAGUCAUAUCGCUCUGGAGUGAUGUUCCGGAACGUGCGGAGAAGACCCUUGGCAGCUCAUGACGGUGU [Exclusion Theophylline B GF 4] | 210 | 194 | 224 | 281 | 214 |
| GGUAGCUAGGUAGGAUAUAGCUAGUGGAGUGAUGUUCCACGAUACACGAGUGAUGUUCGUACCCUGCUAGAAGGGCCUAGCUACC | 114 | 159 | 168 | 172 | 161 |
| GGUCCGGGCUCGGCCGCCACUCCCUCCUGCCGUAAGGUGGGAUACCGAGUGAUGUUCGGUUGGAGGAGGACCGGGAGCCCGGACC [#2 Exclusion - Tryptophan B Attempt #15 (HarryS)] | 165 | 113 | 122 | 105 | 107 |

| Sequence | apparent KD of K4 kissing-loop reporter (input ligand: FMN 200 uM) [nM] | apparent KD of K4 kissing-loop reporter (input ligand: arginine 13.2 mM) [nM] | apparent KD of K4 kissing-loop reporter (input ligand: none) [nM] | apparent KD of K4 kissing-loop reporter [1] [nM] | apparent KD of K4 kissing-loop reporter [2] [nM] |
| --- | --- | --- | --- | --- | --- |
| GGUCGAGUGAUGUUCGAUGUUAUGCAUUCAGAGGAUAUAGGAUUGGCUAGAAGGCUGAAUCGAUCUUCGAGUGAUGUUCGAGGAU [Same State FMN A GF 8] | 116 | 112 | 117 | 101 | 128 |
| GGUCUGCCGCAGUGAUGUUGCUGGCAUACACGAGGACCGGUACGGCCGCCACUCGAUGCUCCAAGAACCACCAAUCUUCGGUAUC [theeternabot_sameState_KL_Trp_A_48] | 257 | 235 | 229 | 236 | 236 |
| GGUGACAACCAGAGGUGAUGUAUAGAAUAGCGAGGACCGGUACGGCCGCCACUCGUGAAGAGAAAGGAGUGAUGUUCCGUAAUGG [Kazoo C5] | 330 | 298 | 453 | 485 | 166 |
| GGUGACAGCCAGGAGUGAUGUAUAGAAUAGCGAGGACCGGUACGGCCGCCACUCGUGAAGAGAAGGGAGUGAUGUUCCGUAAUGG [Kazoo C] | 627 | 185 | 170 | 386 | 140 |
| GGUGCUGUCUGUGCCGCCUUCCUCGUUCCUCGAGGACCGGUACGGCCGCCACUCGAGUGAUGUUUGGGUAGCGAUCCCUGCUAGC [Bdazzled - #15 Exc. Tryptophan A] | 1010 | 737 | 1180 | 1030 | 917 |
| GGUUAAUAGGAGGAUACCAGUACGAAUAAAGUACAUUAAUAGUAGAGUGAUGUUCUAAAGUACCCUUGGCAGCUUAGAGUUAGUU [#19 K4 Theophylline B Exclusion] | 128 | 216 | 169 | 257 | 102 |
| GGUUUAUAGGAGGAUACCAGUACGGAUAAAGUACGUUAAUAGUAGAGUGAUGUUCUAAAGUACCCUUGGCAGCUUAGAGUGAGUU [ExTheophylB.L] | 105 | 157 | 122 | 159 | 78.8 |
| GUAAGACCGGGACUCCAGUGAUGUUGGAGGCAGGAUAUCCAGUCGAGGAGAAGGGCCAGGGAUAUCGAGCUGCUCGGUUUGUAGU [Argeis] | 81.9 | 69.5 | 93.6 | 78.9 | 56.2 |
| GUACCGCGUGCGGCCGCCACUACAUCAAUUACCUAAGCCUAGUGAUGUUGGGUUUUUGCUACAGGUAGGACCGGGCAGAUGUAUG [theeternabot_sameState_KL_Trp_B_38] | 292 | 225 | 307 | 263 | 270 |
| GUACCUUGGAAACAAGGACAGCUCACCGAAGGAGCGCGUGAAAACGCAGGUAGGUCGCGGUAGCGGAGUGAUGUUCCGCGAGGGC [Same State Arginine A GF 20] | 114 | 99.5 | 100 | 112 | 106 |
| GUAGCACUCGGUAGUGAUGUUAUCGAGGACAAGGAUAUCAUCUCAAUGAGAAGGUGUCCUUGAUAACAGCUACGGGAAUAUCCCA [Omei KL FMN A Exc D v4] | 386 | 117 | 134 | 120 | 127 |
| GUAGCCCUAUGUGAUACCAGACGGUAUAAAAUCCUGGCGGCCAGUGAUGUUGGCCAUCGCGUCCCUUGGCAGCACCAAGGCUGUA [theeternabot_sameState_KL_Theo_B_18] | 122 | 143 | 142 | 118 | 114 |
| GUAGGAUGAGGAGGAGGAUGAAUUACUGAAGGAGCGCAUAUUAAUGCAGGUAGGUCGCGGUAAAGAAGUAUAGUGAUGUUAUAUA [SSArgA.H] | 238 | 538 | 589 | 399 | 234 |
| GUAGGCUACCGAGGAUAUAGUCCAACGGAGUGAUGUUCCGUCUUUCUUCAUCAUUAACGUUGUGAUCUAGAAGGCGGUAGCCUAC | 120 | 440 | 723 | 529 | 687 |
| GUAUCGCUAGGAGGAUAUUCCGUUUUUCAUAGCAAUGGCUAUGCGGAGUGAUGUUCCGAUUUACCGGAAGAAGGCCUAGUGAUAC [FMN B 24] | 108 | 139 | 128 | 148 | 114 |
| GUAUCGCUAGGAGGAUAUUUCAAAUAAUAAAUAAAUGGUUAUACGGAGUGAUGUUCCGAUUUACGGAAAGAAGGCCUAGUGAUAC [FMN B 3] | 118 | 144 | 155 | 153 | 147 |
| GUAUCGCUAGGAGGAUAUUUCAAAUCGCCAAUAAAUGGUGAUACGGAGUGAUGUUCCGAUUUACGGAAAGAAGGCCUAGUGAUAC [FMN B 6] | 135 | 269 | 322 | 288 | 268 |
| GUAUCGCUAGGAGGAUAUUUCAAUUUGACUCUUUGAGUUAAUACGGAGUGAUGUUCCGAUUUACGGAAAGAAGGCCUAGUGAUAC [FMN B 13] | 123 | 203 | 238 | 219 | 210 |
| GUAUCGCUAGGAGGAUAUUUCGUUUUUCAUAGCAAUGGCUAUGCGGAGUGAUGUUCCGAUUUACCGAAAGAAGGCCUAGUGAUAC [FMN B 25] | 95.2 | 87.8 | 99.2 | 103 | 98.8 |
| GUGAAGGAGCUGCAGUGAUGUUGCAGAGACUAGGAUAUCAGGAAACUGAGAAGGAGUCAACUCCUUCACCUAGACACUGCAGAAA [[F]''-[K1]-[K2]-[F1]-[F2]-[F2]'-[F1]'-[K]'_Design1] | 110 | 108 | 128 | 170 | 143 |
| GUGAGGAGUGGUGUUGAUUAGGGAGCGGAAGGAGCGCCGAGGAAGGCAGGUAGGUCGCCGGAUUAUAGUGAUGUUAUGAAGAGGG [ExArg.K] | 482 | 523 | 551 | 886 | 338 |
| GUGCGGCUAGUGAUGUUGGUUGCGUGGGAAGGAGCGCAGUAAAAUGCAGGUAGGUCGCCCGCAUCUCUGAUAAAAGAUUAAUUCA [KL-SSArg-A9] | 276 | 196 | 228 | 238 | 228 |
